B1: unnamed (parent)
chain 1: SIDPADLDESWDYIFETTESPSSD
chain 2: MSHSGAAIFEKVSGIIAINEDVSPAELTWRSTDGDKVHTVVLSTIDKLQATPASSEKMMLRLIGKVDESKKRKDNEGNEVVPKPQRHMFSFNNRTVMDNIKMTLQQIISRYKDAD

Variants of: B1
Experiment: ITC
Details: with partner chain of the complex shown; 25°C in a 20 mM Tris pH 7.4

Question: Which Kd does the source give for chain 1 SIDPADLDESWDYSFETTESPSSD here?
Answer: 4.2 µM

Reference: article PMC3968163
